Where “and” joins values, the source holds several entries; their conditions need not be identical. Equal values may be shown once.

Data on one protein can be found in FireProtDB (doi:10.1021/bi047926u).

For the data set the following is noted: Bacillus subtilis (strain 168); pH 7.2; Thermal; CD; TES-KOH 21 mM; KCl 4 mM; reversible: No; whole UniProt chain shown.

B1: Manganese-dependent inorganic pyrophosphatase wild type, P37487 (protein)
chain: MEKILIFGHQNPDTDTICSAIAYADLKNKLGFNAEPVRLGQVNGETQYALDYFKQESPRLVETAANEVNGVILVDHNERQQSIKDIEEVQVLEVIDHHRIANFETAEPLYYRAEPVGCTATILNKMYKENNVKIEKEIAGLMLSAIISDSLLFKSPTCTDQDVAAAKELAEIAGVDAEEYGLNMLKAGADLSKKTVEELISLDAKEFTLGSKKVEIAQVNTVDIEDVKKRQAELEAVISKVVAEKNLDLFLLVITDILENDSLALAIGNEAAKVEKAFNVTLENNTALLKGVVSRKKQVVPVLTDAMAE
As a reminder, the Tm is the temperature at which the thermal transition is half complete. B1: the Tm was 50 °C and 46 °C.
